Assay results taken from patent US20240101638A1 (CURRUS BIOLOGICS, published 2024).
“And” between values parts separate entries of the source, which are not always exact repeats. Equal values may be shown once.

Biological target: T1, Mesothelin (Homo sapiens (Human), UniProt Q13421 296-598)
T1 construct: Soluble analyte in SPR at 0.15-111 nM
Assay: SPR, antibody as ligand, mesothelin as analyte

T1 sequence (Q13421 other isoform, or with tags, fused parts or gaps limits assumed): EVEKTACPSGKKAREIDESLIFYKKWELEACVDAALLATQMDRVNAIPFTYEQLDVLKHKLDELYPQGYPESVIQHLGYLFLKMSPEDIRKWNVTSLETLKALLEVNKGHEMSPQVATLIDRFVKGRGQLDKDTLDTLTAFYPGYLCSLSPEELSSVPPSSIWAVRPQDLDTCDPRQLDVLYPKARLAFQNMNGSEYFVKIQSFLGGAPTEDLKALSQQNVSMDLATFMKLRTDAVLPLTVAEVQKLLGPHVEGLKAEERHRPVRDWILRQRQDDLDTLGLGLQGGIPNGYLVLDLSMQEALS

B1: 7B1 IgG1 LALA anti-mesothelin antibody (antibody, V domains shown)
VH: EVHLVESGGGLVQPGGSLRLSCAASGFTFSRYWMSWVRQAQGKGLEWVASIKQAGSEKTYVDSVKGRFTISRDNAKNSLSLQMNSLRAEDTAVYYCAREGAYYYDSASYYPYYYYYSMDVWGQGTTVTVSS
VL: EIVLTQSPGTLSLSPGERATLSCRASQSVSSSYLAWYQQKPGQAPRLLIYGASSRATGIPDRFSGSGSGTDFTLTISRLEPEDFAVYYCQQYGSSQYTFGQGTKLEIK
notes: Tested as IgG1 with LALA mutations; It was the immobilised ligand in the SPR; two samples were measured; also called 7B1 IgG1 LALA AA cAb7385-10.16; 7b1 IgG1 LALA - Sample 1
Kd: 0.912 nM and 0.658 nM | koff: 0.000189 s⁻¹ and 0.000132 s⁻¹ | kon: 207000 M⁻¹ s⁻¹ and 201000 M⁻¹ s⁻¹
